This test has as its target αVβ3 integrin (UniProt P06756). Kind of test: binding to αVβ3, against the unsubstituted sequence.

αVβ3 integrin, sequence (P06756 31-1048, chain 1 of 2): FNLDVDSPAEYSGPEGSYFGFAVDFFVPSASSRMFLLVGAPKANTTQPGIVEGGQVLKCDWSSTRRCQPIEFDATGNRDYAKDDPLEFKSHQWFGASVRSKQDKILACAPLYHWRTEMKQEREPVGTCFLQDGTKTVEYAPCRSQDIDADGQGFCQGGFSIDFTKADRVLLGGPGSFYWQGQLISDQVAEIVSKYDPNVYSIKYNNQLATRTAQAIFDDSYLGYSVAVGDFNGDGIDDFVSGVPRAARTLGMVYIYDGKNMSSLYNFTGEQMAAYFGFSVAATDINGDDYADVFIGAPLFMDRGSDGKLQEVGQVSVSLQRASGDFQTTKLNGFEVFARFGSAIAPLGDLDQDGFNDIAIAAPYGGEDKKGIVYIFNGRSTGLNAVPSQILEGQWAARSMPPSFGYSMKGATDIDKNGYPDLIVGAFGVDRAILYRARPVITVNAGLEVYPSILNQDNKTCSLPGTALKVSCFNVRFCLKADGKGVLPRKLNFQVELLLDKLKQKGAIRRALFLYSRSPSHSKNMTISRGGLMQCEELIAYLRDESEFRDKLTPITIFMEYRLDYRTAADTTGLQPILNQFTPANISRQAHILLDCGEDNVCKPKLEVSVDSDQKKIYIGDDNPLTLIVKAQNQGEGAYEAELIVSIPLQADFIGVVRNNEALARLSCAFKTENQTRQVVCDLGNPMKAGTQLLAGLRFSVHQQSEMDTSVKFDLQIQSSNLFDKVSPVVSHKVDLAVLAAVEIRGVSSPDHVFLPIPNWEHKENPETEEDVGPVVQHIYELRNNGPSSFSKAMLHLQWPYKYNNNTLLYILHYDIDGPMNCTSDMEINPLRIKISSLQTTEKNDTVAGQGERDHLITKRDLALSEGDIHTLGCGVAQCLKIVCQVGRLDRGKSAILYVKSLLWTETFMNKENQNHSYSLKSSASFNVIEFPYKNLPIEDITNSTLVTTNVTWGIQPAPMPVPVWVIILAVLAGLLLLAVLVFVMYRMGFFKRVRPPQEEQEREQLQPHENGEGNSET
αVβ3 integrin, sequence (P05106 27-788, chain 2 of 2, further chain): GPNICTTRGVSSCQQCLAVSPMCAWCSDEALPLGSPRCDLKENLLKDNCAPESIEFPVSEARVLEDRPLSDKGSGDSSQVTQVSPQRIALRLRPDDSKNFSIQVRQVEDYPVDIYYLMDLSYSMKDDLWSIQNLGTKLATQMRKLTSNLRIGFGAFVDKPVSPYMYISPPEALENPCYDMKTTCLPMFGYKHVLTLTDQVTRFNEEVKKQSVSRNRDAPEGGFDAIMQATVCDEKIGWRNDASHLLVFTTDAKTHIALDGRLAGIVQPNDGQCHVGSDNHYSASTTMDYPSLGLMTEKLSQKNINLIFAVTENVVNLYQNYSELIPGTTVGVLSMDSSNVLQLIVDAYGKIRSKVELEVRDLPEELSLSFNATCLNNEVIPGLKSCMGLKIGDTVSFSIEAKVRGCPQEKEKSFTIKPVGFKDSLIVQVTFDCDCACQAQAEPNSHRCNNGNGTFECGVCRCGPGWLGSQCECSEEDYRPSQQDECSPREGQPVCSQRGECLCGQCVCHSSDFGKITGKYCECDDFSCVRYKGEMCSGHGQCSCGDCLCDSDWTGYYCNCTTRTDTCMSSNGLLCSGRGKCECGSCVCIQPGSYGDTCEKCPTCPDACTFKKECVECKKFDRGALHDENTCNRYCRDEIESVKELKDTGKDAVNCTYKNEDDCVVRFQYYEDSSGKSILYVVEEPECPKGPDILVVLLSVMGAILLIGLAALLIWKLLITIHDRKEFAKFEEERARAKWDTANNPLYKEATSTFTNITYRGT

With “vitronectin sequence with the single arginine at position 374 changed to alanine (peptide)”, the decrease in binding came to 70%.

These data come from US20050288217A1.
